The numbers were not newly measured in paper PMC3061301, which cites them from elsewhere.

By Kd is commonly meant the equilibrium constant for the complex coming apart.

For this series, the target named is PTP-BL (Mus musculus) (UniProt Q64512). The series can be described thus: surface plasmon resonance.
Chain of UniProt Q64512 (Q64512 whole entry): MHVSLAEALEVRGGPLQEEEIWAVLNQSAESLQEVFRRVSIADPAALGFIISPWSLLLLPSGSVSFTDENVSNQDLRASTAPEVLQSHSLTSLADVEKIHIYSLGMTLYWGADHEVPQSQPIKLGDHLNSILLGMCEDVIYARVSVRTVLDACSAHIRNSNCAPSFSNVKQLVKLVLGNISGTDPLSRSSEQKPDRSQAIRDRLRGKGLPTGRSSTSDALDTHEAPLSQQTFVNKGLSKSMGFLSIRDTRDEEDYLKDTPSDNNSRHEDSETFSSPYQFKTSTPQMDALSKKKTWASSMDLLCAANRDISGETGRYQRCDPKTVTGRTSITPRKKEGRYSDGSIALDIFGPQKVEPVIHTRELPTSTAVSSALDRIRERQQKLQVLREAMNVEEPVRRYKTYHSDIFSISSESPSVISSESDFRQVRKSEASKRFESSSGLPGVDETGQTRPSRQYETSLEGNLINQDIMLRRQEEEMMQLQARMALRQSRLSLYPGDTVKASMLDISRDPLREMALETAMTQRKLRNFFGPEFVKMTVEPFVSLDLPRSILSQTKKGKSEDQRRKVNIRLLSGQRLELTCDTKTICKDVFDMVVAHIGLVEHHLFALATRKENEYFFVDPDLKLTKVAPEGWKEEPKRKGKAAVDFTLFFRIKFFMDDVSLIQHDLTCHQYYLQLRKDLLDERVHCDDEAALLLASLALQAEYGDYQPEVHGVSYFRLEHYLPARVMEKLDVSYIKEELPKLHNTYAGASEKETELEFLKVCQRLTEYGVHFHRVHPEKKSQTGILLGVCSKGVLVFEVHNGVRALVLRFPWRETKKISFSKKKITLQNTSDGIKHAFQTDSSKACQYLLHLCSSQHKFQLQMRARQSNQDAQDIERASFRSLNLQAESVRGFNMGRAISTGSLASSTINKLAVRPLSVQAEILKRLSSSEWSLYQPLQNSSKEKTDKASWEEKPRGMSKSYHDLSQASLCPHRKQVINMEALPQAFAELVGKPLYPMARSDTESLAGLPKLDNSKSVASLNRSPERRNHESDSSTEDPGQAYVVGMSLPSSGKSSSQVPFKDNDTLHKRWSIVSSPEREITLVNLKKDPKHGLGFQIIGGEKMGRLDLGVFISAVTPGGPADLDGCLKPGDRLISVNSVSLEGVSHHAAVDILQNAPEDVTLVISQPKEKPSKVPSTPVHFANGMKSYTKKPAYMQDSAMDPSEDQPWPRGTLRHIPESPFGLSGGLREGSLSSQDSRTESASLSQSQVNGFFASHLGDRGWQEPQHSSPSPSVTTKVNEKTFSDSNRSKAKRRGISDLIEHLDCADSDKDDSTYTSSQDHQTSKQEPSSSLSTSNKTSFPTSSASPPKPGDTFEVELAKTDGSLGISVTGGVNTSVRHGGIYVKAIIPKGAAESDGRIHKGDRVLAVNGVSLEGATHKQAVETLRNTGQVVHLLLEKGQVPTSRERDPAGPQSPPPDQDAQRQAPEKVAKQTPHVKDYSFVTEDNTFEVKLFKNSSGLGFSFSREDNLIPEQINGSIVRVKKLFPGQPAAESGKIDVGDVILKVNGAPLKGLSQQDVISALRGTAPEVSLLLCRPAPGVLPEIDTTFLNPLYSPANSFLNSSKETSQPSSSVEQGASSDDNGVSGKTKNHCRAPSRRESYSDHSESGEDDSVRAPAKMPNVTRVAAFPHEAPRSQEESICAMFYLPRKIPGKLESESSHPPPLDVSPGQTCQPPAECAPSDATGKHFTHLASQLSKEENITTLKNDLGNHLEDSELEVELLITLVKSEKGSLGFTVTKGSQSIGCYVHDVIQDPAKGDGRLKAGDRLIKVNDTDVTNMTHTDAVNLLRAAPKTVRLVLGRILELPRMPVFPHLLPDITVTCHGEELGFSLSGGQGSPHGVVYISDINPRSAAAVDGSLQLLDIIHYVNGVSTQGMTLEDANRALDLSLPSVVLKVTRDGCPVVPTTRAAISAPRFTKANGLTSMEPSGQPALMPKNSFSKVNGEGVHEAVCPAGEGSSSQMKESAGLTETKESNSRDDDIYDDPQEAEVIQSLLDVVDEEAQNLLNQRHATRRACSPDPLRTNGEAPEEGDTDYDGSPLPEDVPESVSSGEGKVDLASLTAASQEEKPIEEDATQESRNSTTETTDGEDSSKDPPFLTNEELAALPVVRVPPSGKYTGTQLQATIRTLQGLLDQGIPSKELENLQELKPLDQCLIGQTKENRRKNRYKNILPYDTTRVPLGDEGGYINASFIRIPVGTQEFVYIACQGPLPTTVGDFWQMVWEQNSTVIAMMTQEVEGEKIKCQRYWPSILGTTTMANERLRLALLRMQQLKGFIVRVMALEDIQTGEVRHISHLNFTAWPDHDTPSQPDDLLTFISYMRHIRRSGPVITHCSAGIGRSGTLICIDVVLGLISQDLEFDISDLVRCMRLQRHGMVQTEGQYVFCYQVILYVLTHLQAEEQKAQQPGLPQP

With “APC C-terminal 19 amino acids (from UniProt P25054)”, the Kd was 8 nM.
